Data as given in the supplement of paper PMC9112550, “Optimization of the antimicrobial peptide Bac7 by deep mutational scanning” (BMC Biology, 2022).

System: Escherichia coli TOP10
Test: shrunken log2 fold change of peptide-encoding DNA abundance (4.5 h post-induction vs induction); higher = less antimicrobial activity (less host growth inhibition)
Settings: time post-induction: 4.5 h; library: site-saturation at positions 5, 18, 19, 20
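Further: peptides expressed intracellularly from a pBAD plasmid library in pooled LB shake-flask culture, induced with 0.3% L-arabinose, DNA abundance read by NGS, three biological replicates, DESeq2 with apeglm shrinkage.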

| Sequence | shrunken log2 fold change |
| --- | --- |
| RRIRDRPPRLPRPRPRPTEIPRP | 0.23 |
| RRIRFRPPRLPRPRPRPIWEPRP | -0.0122 |
| RRIRCRPPRLPRPRPRPYRHPRP | -0.982 |
| RRIRERPPRLPRPRPRPHRNPRP | -0.869 |
| RRIRMRPPRLPRPRPRPIALPRP | 0.0271 |
| RRIRCRPPRLPRPRPRPNKTPRP | -0.0276 |
| RRIRWRPPRLPRPRPRPCINPRP | -0.374 |
| RRIRWRPPRLPRPRPRPFWSPRP | 0.284 |
| RRIRGRPPRLPRPRPRPYDTPRP | -0.0956 |
| RRIRFRPPRLPRPRPRPVMLPRP | -0.412 |
| RRIRRRPPRLPRPRPRPICSPRP | 0.0991 |
| RRIRWRPPRLPRPRPRPGTGPRP | 0.188 |
| RRIRVRPPRLPRPRPRPKYWPRP | -0.126 |
| RRIRIRPPRLPRPRPRPFAWPRP | 0.00684 |
| RRIRGRPPRLPRPRPRPTRYPRP | 0.357 |
| RRIRSRPPRLPRPRPRPARQPRP | -0.0654 |
| RRIRARPPRLPRPRPRPQIVPRP | -0.0292 |
| RRIRWRPPRLPRPRPRPEDEPRP | 0.0692 |
| RRIRSRPPRLPRPRPRPNAKPRP | 0.00752 |
| RRIRLRPPRLPRPRPRPFPFPRP | -0.254 |
| RRIRIRPPRLPRPRPRPERKPRP | 0.00827 |
| RRIRKRPPRLPRPRPRPPTLPRP | 1.53 |
| RRIRMRPPRLPRPRPRPFGTPRP | -0.112 |
| RRIRRRPPRLPRPRPRPTRSPRP | 0.341 |
| RRIRRRPPRLPRPRPRPSGLPRP | 0.00401 |

| Sequence | shrunken log2 fold change |
| --- | --- |
| RRIRIRPPRLPRPRPRPAMEPRP | 0.0199 |
| RRIRTRPPRLPRPRPRPDNIPRP | -0.38 |
| RRIRDRPPRLPRPRPRPHYNPRP | -0.635 |
| RRIRQRPPRLPRPRPRPNMMPRP | -0.442 |
| RRIRARPPRLPRPRPRPVQHPRP | 0.555 |
| RRIRCRPPRLPRPRPRPILGPRP | -0.378 |
| RRIRCRPPRLPRPRPRPAFCPRP | 0.172 |
| RRIRKRPPRLPRPRPRPPFHPRP | 0.307 |
| RRIRDRPPRLPRPRPRPNTIPRP | -0.456 |
| RRIRRRPPRLPRPRPRPGLYPRP | 0.305 |
| RRIRCRPPRLPRPRPRPAVFPRP | -0.127 |
| RRIRYRPPRLPRPRPRPWTWPRP | -0.106 |
| RRIRARPPRLPRPRPRPSSRPRP | -0.167 |
| RRIRPRPPRLPRPRPRPCRLPRP | -0.29 |
| RRIRMRPPRLPRPRPRPSFPPRP | -0.222 |
| RRIRFRPPRLPRPRPRPINNPRP | -0.683 |
| RRIRIRPPRLPRPRPRPAFKPRP | -0.317 |
| RRIRSRPPRLPRPRPRPMCFPRP | -0.149 |
| RRIRVRPPRLPRPRPRPDYLPRP | -0.222 |
| RRIRVRPPRLPRPRPRPMTLPRP | -0.0218 |
| RRIRQRPPRLPRPRPRPLSFPRP | -0.415 |
| RRIRPRPPRLPRPRPRPTWWPRP | 0.426 |
| RRIRHRPPRLPRPRPRPYKDPRP | -0.017 |
| RRIRTRPPRLPRPRPRPRSKPRP | -0.101 |
| RRIRARPPRLPRPRPRPKCGPRP | 0.432 |

| Sequence | shrunken log2 fold change |
| --- | --- |
| RRIRERPPRLPRPRPRPWWSPRP | -0.0183 |
| RRIRMRPPRLPRPRPRPTDPPRP | 0.00799 |
| RRIRVRPPRLPRPRPRPRCWPRP | 0.294 |
| RRIRVRPPRLPRPRPRPPEYPRP | -0.225 |
| RRIRSRPPRLPRPRPRPPEDPRP | 0.0304 |
| RRIRRRPPRLPRPRPRPILLPRP | -0.149 |
| RRIRMRPPRLPRPRPRPGNMPRP | -0.331 |
| RRIRDRPPRLPRPRPRPRYDPRP | -0.284 |
| RRIRQRPPRLPRPRPRPHIEPRP | -0.58 |
| RRIRHRPPRLPRPRPRPAKYPRP | 0.136 |
| RRIRLRPPRLPRPRPRPACKPRP | 0.00454 |
| RRIRKRPPRLPRPRPRPRWEPRP | 0.0207 |
| RRIRKRPPRLPRPRPRPTSDPRP | 0.492 |
| RRIRSRPPRLPRPRPRPHWQPRP | -0.0893 |
| RRIRFRPPRLPRPRPRPSWIPRP | -0.177 |
| RRIRDRPPRLPRPRPRPCAEPRP | 0.508 |
| RRIRARPPRLPRPRPRPLSAPRP | 0.636 |
| RRIRVRPPRLPRPRPRPVTAPRP | -0.0594 |
| RRIRYRPPRLPRPRPRPRDSPRP | -0.269 |
| RRIRQRPPRLPRPRPRPEMWPRP | 0.483 |
| RRIRHRPPRLPRPRPRPFFVPRP | -0.224 |
| RRIRMRPPRLPRPRPRPPHYPRP | 0.728 |
| RRIRYRPPRLPRPRPRPWFQPRP | -0.00061 |
| RRIRHRPPRLPRPRPRPFNQPRP | -0.0213 |
| RRIRMRPPRLPRPRPRPHYYPRP | -0.061 |
